The assay concerns the target FADD (UniProt Q13158). Kind of assay: anti-flag immunoprecipitation, immunoblot. As to conditions: reference: wild type; sites S116. For orientation: Immunoblotting shows a protein as a band on a membrane.

Experimental findings from article PMC4303232 are described below.

PEA15 (from UniProt Q15121) S116A: the “binding against the reference” value is on record as “weaker”.
